From publication doi:10.1101/2021.04.23.440992

Target: FUS-DDIT3 (Type II fusion), recombinant
Assay: partitioning of a labelled client into condensates

Substance	partition coefficient
ARID1A^PLD, recombinant prion-like domain of ARID1A (domain or fragment)	15
ARID1B^PLD, recombinant prion-like domain of ARID1B (domain or fragment)	3.8
BRG1, recombinant, RED-tris-NTA-labeled (from UniProt P51532 1-1647) (natural protein)	27
BRG1^PLD, recombinant N-terminal prion-like domain of BRG1 (from UniProt P51532 1-340) (domain or fragment)	40
SS18^PLD, recombinant prion-like domain of SS18 (domain or fragment)	6
